Results on 120 sequences are retold here after the supplement of paper PMC10126150.

± gives the standard deviation of the averaged measurements.
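Further: ATP exposure 15 min at 22 °C before imaging.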

This data set concerns ATP. Put plainly: switch fluorescence ratio, 500 uM ATP over buffer (Cy3 cluster intensity, sum of 5 cycles each) (fold (ratio)); higher = stronger signal-on switching upon ATP binding; sequences stand for … in TCGTCGGCAGCGTCAGATGTGTATAAGAGACAGTTTTTTTTTTTTTTTTTTTTTTTTT…TC. Particulars: aptamer strand: ATP DNA aptamer (quencher-CACCTGGGGGAGTATTGCGGAGGAAGG + anchor), 100 nM annealed; ATP concentration: 500 uM. Summed up: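 After annealing to 100 nM quencher-labelled ATP aptamer, Cy3-labelled switching-strand clusters on a modified Illumina MiSeq flow-cell were imaged in selection buffer. A second image followed after 15 min with 500 uM ATP at 22 °C, and five such buffer/ATP cycles were done, each separated by NaOH stripping and re-annealing. The fluorescence ratio, averaged per switch-domain sequence, is summed target-cycle over summed buffer-cycle Cy3 intensity per cluster, with clusters outside 100-1000 RFU excluded.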
Take TTTTTAGTGC: the switch fluorescence ratio amounted to 1 ± 0.044.

With CTGACTTTTT, the switch fluorescence ratio stood at 1.02 ± 0.016.

Regarding AGTGTGGGCT, the switch fluorescence ratio turned out to be 1.04 ± 0.021.

GCGGTGTTGG: the switch fluorescence ratio came out at 0.9887 ± 0.006.

Regarding GATTTGTGTC, the switch fluorescence ratio turned out to be 0.955 ± 0.081.

On to AGAGAGGAGG, for which the switch fluorescence ratio turned out to be 0.997 ± 0.066.

On to CAATAGGGGA, for which the switch fluorescence ratio came out at 1.01 ± 0.017.

With ATTTTTTTCC, the switch fluorescence ratio worked out at 1.38 ± 0.57.

With GAGGGGAGTG, the switch fluorescence ratio is 1.03 ± 0.064.

As to TGTTTGTAGG, the switch fluorescence ratio is 0.97 ± 0.043.

As for AGTGGTTTTT, the switch fluorescence ratio was 0.9946 ± 0.0055.

For TGTCCCTCTT, the switch fluorescence ratio is 1.02 ± 0.053.

For the sequence GCGTTTAACT, the switch fluorescence ratio amounted to 0.9888 ± 0.008.

As to TTTGGAGAAA, the switch fluorescence ratio was found to be 0.989 ± 0.022.

Take AGGAAGTGGG: the switch fluorescence ratio is 0.959 ± 0.028.

In the case of TGGGTTTGGG, the switch fluorescence ratio worked out at 0.984 ± 0.035.

As for ACTTAGTGCC, the switch fluorescence ratio stood at 1.087 ± 0.0073.

As for TTGGCACCCG, the switch fluorescence ratio was found to be 1.04 ± 0.034.

With TGCAGGAATG, the switch fluorescence ratio is 2.17 ± 1.6.

With TGGGAAGTCC, the switch fluorescence ratio stood at 1.001 ± 0.0074.

With AGAGGCTAGG, the switch fluorescence ratio amounted to 1.01 ± 0.032.

With TGTTTGCCAG, the switch fluorescence ratio worked out at 1 ± 0.05.

In the case of TTCGCGACTT, the switch fluorescence ratio was determined as 0.987 ± 0.029.

In the case of TCAGGCTGGG, the switch fluorescence ratio amounted to 1.02 ± 0.016.

As for TGAGGGCGGG, the switch fluorescence ratio is 1.03 ± 0.056.

For CTCGTGAGTT, the switch fluorescence ratio was found to be 1.02 ± 0.021.

For ATTGTGGTCA, the switch fluorescence ratio was found to be 0.999 ± 0.017.

On to GCGTGTAGAT, for which the switch fluorescence ratio worked out at 1.04 ± 0.036.

As for GGGTAGTGGT, the switch fluorescence ratio came to 1.01 ± 0.038.

Take CCGTTGGTTT: the switch fluorescence ratio is 0.9937 ± 0.0088.

Turning to CCAGGGCGAA, the switch fluorescence ratio stood at 1.064 ± 0.0056.

On to TGCTCAGCTG, for which the switch fluorescence ratio came out at 1.04 ± 0.026.

Consider TTGCTTTGTG, for which the switch fluorescence ratio worked out at 1 ± 0.042.

As for TTCGATGTGG, the switch fluorescence ratio was 1.01 ± 0.018.

Regarding TTCTTGTGGG, the switch fluorescence ratio was 1.05 ± 0.057.

As to ACTCGTAATC, the switch fluorescence ratio worked out at 3.04 ± 0.48.

With TTTAGGGGAC, the switch fluorescence ratio was 1 ± 0.012.

As for CCTGCCGTTA, the switch fluorescence ratio is 1.27 ± 0.078.

Regarding GGCGCGTCCA, the switch fluorescence ratio amounted to 0.994 ± 0.013.

Take ACGGGGGTG: the switch fluorescence ratio is 1.04 ± 0.074.

For AAGTTATGAG, the switch fluorescence ratio turned out to be 1.01 ± 0.046.

In the case of AAGCGTGGGA, the switch fluorescence ratio amounted to 1.02 ± 0.039.

With GGAACCTCTG, the switch fluorescence ratio was 1.012 ± 0.0037.

Turning to TTTGTGGTTC, the switch fluorescence ratio came to 1 ± 0.039.

Regarding TGAACGGATC, the switch fluorescence ratio was 1.03 ± 0.008.

With TTATCTCTGT, the switch fluorescence ratio was 0.999 ± 0.022.

For the sequence GGTGTCTCCC, the switch fluorescence ratio came out at 1 ± 0.039.

On to TAGGCTAGGG, for which the switch fluorescence ratio turned out to be 0.9713 ± 0.0062.

In the case of TAGTTCAGGA, the switch fluorescence ratio stood at 1.05 ± 0.036.

Regarding TTTATTGCGG, the switch fluorescence ratio was found to be 1.01 ± 0.043.

Regarding TGGGTGTAGC, the switch fluorescence ratio came out at 0.986 ± 0.011.

Turning to AGGAGCTTGA, the switch fluorescence ratio is 1.03 ± 0.018.

As to CTGATTGAGT, the switch fluorescence ratio came out at 0.9763 ± 0.0063.

Regarding GGCGCAGTTC, the switch fluorescence ratio stood at 1.37 ± 0.077.

Regarding TTGTTGTGGT, the switch fluorescence ratio was determined as 0.987 ± 0.032.

On to TGGATCGTAG, for which the switch fluorescence ratio amounted to 0.978 ± 0.011.

Consider GCTTTACTGT, for which the switch fluorescence ratio stood at 1.01 ± 0.013.

For TTTTGGTCCT, the switch fluorescence ratio came to 1.07 ± 0.1.

For the sequence AGTATTGGGC, the switch fluorescence ratio turned out to be 1.008 ± 0.01.

Regarding ACATTGGCGA, the switch fluorescence ratio is 0.988 ± 0.044.

For the sequence GGCCGGAGGT, the switch fluorescence ratio turned out to be 1 ± 0.011.

For GCTATCATCG, the switch fluorescence ratio came to 0.997 ± 0.035.

As to CCTGTTATGG, the switch fluorescence ratio was determined as 1.01 ± 0.032.

Turning to AAGAGCGGGA, the switch fluorescence ratio was 0.989 ± 0.041.

On to GCGGAATAGG, for which the switch fluorescence ratio was 1.038 ± 0.0062.

As for GATTGGAGCG, the switch fluorescence ratio is 1.008 ± 0.0031.

On to AGGGATTAGT, for which the switch fluorescence ratio worked out at 0.991 ± 0.022.

Consider TTCCATGGTC, for which the switch fluorescence ratio turned out to be 1.02 ± 0.014.

With ACCTGTTTGT, the switch fluorescence ratio came out at 1.01 ± 0.017.

TCATGGTTTT: the switch fluorescence ratio was 0.977 ± 0.016.

As for AGGGTAATTG, the switch fluorescence ratio amounted to 0.998 ± 0.036.

With AGAGTCAAGT, the switch fluorescence ratio came to 0.969 ± 0.017.

With TCGGGGGGTG, the switch fluorescence ratio was determined as 1.01 ± 0.041.

For the sequence ATGGTTTTT, the switch fluorescence ratio was determined as 0.984 ± 0.022.

With CTTAGGGTAG, the switch fluorescence ratio is 1.01 ± 0.019.

Take AAACTAGGGG: the switch fluorescence ratio stood at 1.06 ± 0.016.

In the case of GCTGTACGCG, the switch fluorescence ratio stood at 1.03 ± 0.029.

On to GATAGTCTTG, for which the switch fluorescence ratio turned out to be 0.985 ± 0.023.

On to GGTAGTGGGT, for which the switch fluorescence ratio turned out to be 1 ± 0.013.

Regarding GTTACAGAGA, the switch fluorescence ratio worked out at 1.003 ± 0.0011.

As to ATTTTGATGT, the switch fluorescence ratio amounted to 0.995 ± 0.051.

As to TTTTTTGGTA, the switch fluorescence ratio was 1.01 ± 0.036.

With CGGTTTCCTC, the switch fluorescence ratio was found to be 1.11 ± 0.074.

With TCATGATTTT, the switch fluorescence ratio stood at 0.9992 ± 0.0048.

As for AGGTGATGTG, the switch fluorescence ratio stood at 0.998 ± 0.028.

Regarding GTCGATTTAT, the switch fluorescence ratio amounted to 0.986 ± 0.045.

As to CGGGGGTTCT, the switch fluorescence ratio came to 1.006 ± 0.0032.

Take CGTATTCATA: the switch fluorescence ratio was 0.977 ± 0.037.

As for TAACGTAACA, the switch fluorescence ratio was found to be 1.26 ± 0.068.

On to ACAGAAGATG, for which the switch fluorescence ratio turned out to be 1.003 ± 0.0087.

For ACCATGGGAT, the switch fluorescence ratio came out at 1.02 ± 0.015.

As for ATTAGGAGAC, the switch fluorescence ratio was 1.005 ± 0.008.

Take AAGTAATGCG: the switch fluorescence ratio is 1.04 ± 0.034.

On to AACTCACTTT, for which the switch fluorescence ratio was 1.09 ± 0.02.

Consider AGATGGGAAT, for which the switch fluorescence ratio was found to be 1.04 ± 0.0028.

TGGGCTAGAT: the switch fluorescence ratio came out at 0.998 ± 0.053.

Regarding GGCCTAGAGG, the switch fluorescence ratio is 1.01 ± 0.021.

Turning to AACGGGGGA, the switch fluorescence ratio was determined as 0.9916 ± 0.0024.

Regarding GTAGTAGGGG, the switch fluorescence ratio was 0.999 ± 0.015.

Consider TTACAAGATT, for which the switch fluorescence ratio worked out at 1.03 ± 0.0047.

Take TTATTTCATT: the switch fluorescence ratio stood at 0.9966 ± 0.0062.

As to TCACCAGGGG, the switch fluorescence ratio was determined as 1.76 ± 0.72.

With GTGTGACAAC, the switch fluorescence ratio turned out to be 0.975 ± 0.013.

As to GGGGAAGATT, the switch fluorescence ratio is 0.986 ± 0.03.

Take AATATTCCAT: the switch fluorescence ratio came to 1.02 ± 0.045.

Regarding ATTAAGTTGA, the switch fluorescence ratio stood at 0.987 ± 0.041.

ATGAGCACAA: the switch fluorescence ratio is 1.09 ± 0.017.

ATTATGGTTT: the switch fluorescence ratio turned out to be 1 ± 0.022.

In the case of AAAAATTTCG, the switch fluorescence ratio stood at 1.05 ± 0.063.

In the case of GATGGGTATT, the switch fluorescence ratio was determined as 0.968 ± 0.015.

On to CACTGCTTTT, for which the switch fluorescence ratio was 0.992 ± 0.023.

Regarding CGGGTGTTTT, the switch fluorescence ratio turned out to be 1.055 ± 0.0089.

As for CCGGTGGCTG, the switch fluorescence ratio stood at 1 ± 0.033.

In the case of CCAGGAAACG, the switch fluorescence ratio was found to be 0.99 ± 0.072.

Take ACCCAGTGAA: the switch fluorescence ratio came to 1.24 ± 0.016.

In the case of ATAGTAGCTA, the switch fluorescence ratio stood at 0.9764 ± 0.0016.

Turning to TTTTGCTTTC, the switch fluorescence ratio came out at 1.14 ± 0.1.

TATTTGTAGT: the switch fluorescence ratio came out at 1.01 ± 0.039.

Turning to GAGGACATGC, the switch fluorescence ratio came to 0.979 ± 0.11.

Consider TTCGGGGTTC, for which the switch fluorescence ratio amounted to 1.0029 ± 0.00079.
